Reference: article PMC2745220 (Cell, 2008)

T1: ParB, purified (C. crescentus, UniProt P0CAV8 1-304)
T1 sequence (looked up): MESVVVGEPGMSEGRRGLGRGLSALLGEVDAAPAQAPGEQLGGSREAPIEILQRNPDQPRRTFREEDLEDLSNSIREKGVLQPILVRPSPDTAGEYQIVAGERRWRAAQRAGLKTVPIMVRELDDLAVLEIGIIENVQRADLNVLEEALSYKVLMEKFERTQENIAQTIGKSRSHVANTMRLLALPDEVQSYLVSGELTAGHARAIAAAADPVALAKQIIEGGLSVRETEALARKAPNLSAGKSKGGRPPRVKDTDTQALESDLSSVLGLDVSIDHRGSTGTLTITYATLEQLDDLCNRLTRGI


Columns and labels:
native gel or EMSA = target: the molecule itself; assay: native gel or EMSA
ParB, purified = target: T1, ParB, purified; assay: SPR
SEC = target: the molecule itself; assay: SEC

| Kd (ParB, purified) | Binder | binding result (native gel or EMSA) | binding result (SEC) |
| --- | --- | --- | --- |
| 20 nM | PopZ (Polar Organizing Protein Z), purified, 6-His tag cleaved (natural protein, C. crescentus, UniProt Q9A8N4 1-177, looked up) MSDQSQEPTMEEILASIRRIISEDDAPAEPAAEAAPPPPPEPEPEPVSFDDEVLELTDPIAPEPELPPLETVGDIDVYSPPEPESEPAYTPPPAAPVFDRDEVAEQLVGVSAASAAASAFGSLSSALLMPKDGRTLEDVVRELLRPLLKEWLDQNLPRIVETKVEEEVQRISRGRGA | binds | – |
| – | 6His-PopZ (His-tagged PopZ) (natural protein, C. crescentus, UniProt Q9A8N4 1-177, looked up) MSDQSQEPTMEEILASIRRIISEDDAPAEPAAEAAPPPPPEPEPEPVSFDDEVLELTDPIAPEPELPPLETVGDIDVYSPPEPESEPAYTPPPAAPVFDRDEVAEQLVGVSAASAAASAFGSLSSALLMPKDGRTLEDVVRELLRPLLKEWLDQNLPRIVETKVEEEVQRISRGRGA | – | binds |
